Test results: article doi:10.1101/2025.11.28.691101, “Interaction and co-phase separation of SARS-CoV-2 nucleocapsid protein and human hnRNPA1 and its implications for viral life cycle” (bioRxiv, 2025)

B1: N-terminally GST-tagged human hnRNPA1 (natural protein, UniProt P09651-2 1-320, looked up)
chain: MSKSESPKEPEQLRKLFIGGLSFETTDESLRSHFEQWGTLTDCVVMRDPNTKRSRGFGFVTYATVEEVDAAMNARPHKVDGRVVEPKRAVSREDSQRPGAHLTVKKIFVGGIKEDTEEHHLRDYFEQYGKIEVIEIMTDRGSGKKRGFAFVTFDDHDSVDKIVIQKYHTVNGHNCEVRKALSKQEMASASSSQRGRSGSGNFGGGRGGGFGGNDNFGRGGNFSGRGGFGGSRGGGGYGGSGDGYNGFGNDGSNFGGGGSYNDFGNYNNQSSNFGPMKGGNFGGRSSGPYGGGGQYFAKPRNQGGYGGSSSSSSYGSGRRF
notes: human hnRNPA1; Prey of the Ni-NTA pull-down; The general purification method names only Ni-NTA and SEC; also called GST-hnRNPA1; source: E. coli, purified; not shown: GST, N-terminal, kept
B2: human hnRNPA1, full-length (residues 1 to 320), fluorescently labelled (natural protein, UniProt P09651-2 1-320, looked up)
chain: B1 chain
modifications: RED-NHS 2nd generation dye
notes: human hnRNPA1, full-length, residues 1 to 320 (320-residue form); Labelled protein of the MST titrations (5 nM); also called full length hnRNPA1; source: E. coli Rosetta (DE3), purified (Ni-NTA, SEC)

How the values were obtained:
[1] = target: T1, SARS-CoV-2 nucleocapsid (N) protein, full-length, N-terminally 6xHis-tagged (SARS-CoV-2, UniProt P0DTC9 1-419); test: pull-down; settings: both partners purified
T1 construct: SARS-CoV-2 nucleocapsid (N) protein, full-length, residues 1 to 419 (419 amino acids); also called 6XHis-N protein; FL N protein; not shown: His6, N-terminal, kept

[2] = target: T1, SARS-CoV-2 nucleocapsid (N) protein, …; test: MST; RED-NHS-labelled hnRNPA1 (5 nM) titrated with N protein, NTD, CTD or LKR+CTD; 16 two-fold dilutions from 100 μM; Monolith NT.115; single-site binding model; triplicates; settings: both partners purified

Row | Binder | binding result [1] | Kd [2] [nM]
1 | B1 | binds | 
2 | B2 |  | ~180
